Experimental data as given in patent publication US20220356245A1 (FORTY SEVEN, published 2022).
Where two headings read alike, the source gives them in different places.

T1: mouse CD47 (mCD47) expressed on CHO cells (mouse, UniProt Q61735 19-303)
T1 construct: whole, on cells; also called CHO-mCD47
T1 sequence (looked up): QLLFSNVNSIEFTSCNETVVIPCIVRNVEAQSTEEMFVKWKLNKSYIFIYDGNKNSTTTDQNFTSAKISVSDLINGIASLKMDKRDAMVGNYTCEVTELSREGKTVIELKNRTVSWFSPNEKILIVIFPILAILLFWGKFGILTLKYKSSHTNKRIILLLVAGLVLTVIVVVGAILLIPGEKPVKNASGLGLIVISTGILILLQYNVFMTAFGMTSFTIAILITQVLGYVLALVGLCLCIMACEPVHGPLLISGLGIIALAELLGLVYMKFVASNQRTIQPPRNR


Tests used:
[1] = target: T2, hu-sCD47-6His; extracellular domain of human CD47 antigen with 6His-tag (human); test: SPR Biacore
T2 construct: also called hCD47-his; soluble hCD47
Excerpt: (§1) An anti-human or anti-mouse IgG (Fc) was first immobilized on the surface of Serie S Sensor Chips CM5 using the human or mouse antibody capture and amine coupling kits, following the manufacturer's instructions (GE Healthcare). […] The mouse, chimerized or humanized antibodies to be tested were then captured onto the appropriate anti-mouse or anti-human IgG surface in all flow cells except flow cell 1 used as control, at concentration and contact time adjusted so that ˜300 RU were captured on the surface. Binding kinetics were studied by passing increasing concentrations of hCD47-his in a series of five 10 minute injections through all flow cells at a rate of 30 μL/min. […] Following the final injection, buffer was passed across each flow cell for 60 minutes (mouse) or 30 minutes (human) to monitor the dissociation of bound antigen. Regeneration of the binding surface was carried out at the end of the cycle by flowing 3 M MgCl₂ for 60 s at 20 μL/min followed by 10 mM glycine-HCl, pH 1.7 for 180 s at 10 μl/min (for human) or by flowing 10 mM glycine-HCl, ph 1.7 for 360 s at 10 μl/min (for mouse). A second cycle with the same antibodies but no antigen was run as a control. Kinetics binding constants were estimated by non-linear fitting of the sensogram data to the 1:1 binding model provided by the Biacore T200 evaluation software.

[2] = target: T3, human CD47 (hCD47) expressed on cells (human, UniProt Q08722 19-323); test: flow cytometry, Raji cells
T3 construct: Transfected CHO cells or endogenous CD47 of human cells; also called CHO-hCD47; CD47 on Raji cells

[3] = target: T3, human CD47 (hCD47) expressed on cells; test: flow cytometry, Raji cells, competition with hSIRPα
[4] = target: T3, human CD47 (hCD47) expressed on cells; test: cell-based or functional assay
[5] = target: T3, human CD47 (hCD47) expressed on cells; test: flow cytometry, Raji cells; remark: listed apart in the source
[6] = target: T1, mouse CD47 (mCD47) expressed on CHO …; test: flow cytometry, CHO-mCD47 cells
[7] = target: T2, hu-sCD47-6His; extracellular domain of …; test: SPR Biacore T200, antibody captured, hCD47-his analyte;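 note: antibodies captured on anti-IgG (Fc) CM5 chip, five sequential 10 min antigen injections at rising concentrations, reference flow cell and antigen-free cycle as controls, 1:1 model fit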
Excerpt: as §1

[8] = target: T3, human CD47 (hCD47) expressed on cells; test: flow cytometry, hCD47-CHO cells, competition with His-hSIRPα
Description: Human CD47-transfected cells (3×10⁵ cells/well of 96-well plate) were first incubated at +4° C. for 30 minutes with serial dilutions of anti-CD47 antibodies or isotype control antibody (in mIgG2a or mIgG1 format). […] The percentage inhibition was plotted against antibody concentration and the IC50 values were calculated using a nonlinear regression analysis model of the GraphPad Prism software.

[9] = target: T2, hu-sCD47-6His; extracellular domain of …; test: SPR Biacore; remark: listed apart in the source
Excerpt: as §1

[10] = target: T3, human CD47 (hCD47) expressed on cells; test: flow cytometry, Raji cells; remark: listed apart in the source
[11] = target: T3, human CD47 (hCD47) expressed on cells; test: flow cytometry, Raji cells, competition with hSIRPα; remark: listed apart in the source
[12] = target: T3, human CD47 (hCD47) expressed on cells; test: flow cytometry on Raji cells, hIgG4 format, delta MFI
[13] = target: T3, human CD47 (hCD47) expressed on cells; test: flow cytometry on Raji cells, hIgG4 format: inhibition of hSIRPα binding to hCD47
[14] = target: T2, hu-sCD47-6His; extracellular domain of …; test: SPR Biacore; remark: listed apart in the source
Excerpt: as §1

[15] = target: T3, human CD47 (hCD47) expressed on cells; test: flow cytometry, Raji cells; remark: listed apart in the source
[16] = target: T2, hu-sCD47-6His; extracellular domain of …; test: SPR Biacore; head read as x 10^-4
Excerpt: as §1

[17] = target: T1, mouse CD47 (mCD47) expressed on CHO …; test: flow cytometry, CHO-mCD47 cells (not shown)
[18] = target: T3, human CD47 (hCD47) expressed on cells; test: flow cytometry, Raji cells, competition with hSIRPα; remark: listed apart in the source
[19] = target: T3, human CD47 (hCD47) expressed on cells; test: flow cytometry on Raji cells, hIgG4 format, delta MFI; remark: listed apart in the source
[20] = target: T3, human CD47 (hCD47) expressed on cells; test: flow cytometry on Raji cells, hIgG4 format: inhibition of hSIRPα binding to hCD47; remark: listed apart in the source
[21] = target: T3, human CD47 (hCD47) expressed on cells; test: flow cytometry on Raji cells, hIgG4 format, delta MFI; remark: listed apart in the source
[22] = target: T3, human CD47 (hCD47) expressed on cells; test: flow cytometry on Raji cells, hIgG4 format: inhibition of hSIRPα binding to hCD47; remark: listed apart in the source

Binder	Kd [1]	koff [1]	kon [1]	EC50 [2]	IC50 [3]	Kd [14]	kon [14]	EC50 [15]	koff [16]	binding result [17]	IC50 [18]	also measured
h22-VH3-VL3 (candidate 22.11) (antibody, human IgG4 S228P, kappa, V domains shown, hIgG4-S228P/kappa) VH: QVQLQESGAEVKKPGASVKVSCKASGYTFTTYWMHWVRQAPGQGLEWMGMIHPNSGTTNYNEKFKSRVTMTRDTSTSTVYMELSSLRSEDTAVYYCTRSHYYDGHFSYWGQGTLVTVSS VL: EIVLTQSPDSLAVSLGERATINCKSSQSLLNSRTRKNYLAWYQQKAGQSPKLLIYWASTRESGVPDRFSGSGSGTDFTLTIDSLQAEDVAVYYCKQSYNLWTFGGGTKVEIKR	10.9 nM	0.000306 s⁻¹	28400 M⁻¹ s⁻¹	0.139 µg/mL	0.096 µg/mL	–	–	–	–	–	–	–
h22-VH4-VL3 (candidate 22.15) (antibody, human IgG4 S228P, kappa, V domains shown, hIgG4-S228P/kappa) VH: QVQLVQSGAEVKKPGASVKVSCKGSGYTFTTYWMHWVRQAPGQGLEWMGMIHPNSGTTNYNEKFKSRVTLTRDTSISTAYMELSRLTSDDTAVYYCTRSHYYDGHFSYWGQGTMVTVSS VL: EIVLTQSPDSLAVSLGERATINCKSSQSLLNSRTRKNYLAWYQQKAGQSPKLLIYWASTRESGVPDRFSGSGSGTDFTLTIDSLQAEDVAVYYCKQSYNLWTFGGGTKVEIKR	12.1 nM	0.000351 s⁻¹	29100 M⁻¹ s⁻¹	0.124 µg/mL	0.098 µg/mL	–	–	–	–	–	–	–
h22-VH4-VL4 (candidate 22.16) (antibody, human IgG4 S228P, kappa, V domains shown, hIgG4-S228P/kappa) VH: QVQLVQSGAEVKKPGASVKVSCKGSGYTFTTYWMHWVRQAPGQGLEWMGMIHPNSGTTNYNEKFKSRVTLTRDTSISTAYMELSRLTSDDTAVYYCTRSHYYDGHFSYWGQGTMVTVSS VL: DIVMTQSPDSLPVSLGERATINCKSSQSLLNSRTRKNYLAWYQQKPGQPPKLLIYWASTRESGVPDRFTGSGSGTDFTLTISALQAEDVAVYYCKQSYNLWTFGQGTRLEIKR	9.37 nM	0.000263 s⁻¹	28200 M⁻¹ s⁻¹	0.184 µg/mL	0.116 µg/mL	–	–	–	–	–	–	–
h22-VH3-VL4 (candidate 22.12) (antibody, human IgG4 S228P, kappa, V domains shown, hIgG4-S228P/kappa) VH: QVQLQESGAEVKKPGASVKVSCKASGYTFTTYWMHWVRQAPGQGLEWMGMIHPNSGTTNYNEKFKSRVTMTRDTSTSTVYMELSSLRSEDTAVYYCTRSHYYDGHFSYWGQGTLVTVSS VL: DIVMTQSPDSLPVSLGERATINCKSSQSLLNSRTRKNYLAWYQQKPGQPPKLLIYWASTRESGVPDRFTGSGSGTDFTLTISALQAEDVAVYYCKQSYNLWTFGQGTRLEIKR	10 nM	0.000252 s⁻¹	25200 M⁻¹ s⁻¹	0.108 µg/mL	0.116 µg/mL	–	–	–	–	–	–	–
Candidate 7 (VT008-AL5-10G7-10K7), mouse IgG (antibody, V domains shown) VH: QVQLQQPGAELVMPGSSVKLSCKTSGYTFTKYWMHWVKRRPGQGLEWIGEINPSDTYTNYNQKFKGKSTLTVDKSSSTAYMQLSSLTSEDSAVYFCARVATMVARGFAYWGQGTLVTVSA VL: DIVMTQSHKFMSTSVGDRVSITCKASQDVSGAVVWYQEKPGQSPNLLIYLATYRYTGVPDRFTGSGSGTDFTLTIRSVQAEDMAVYYCQQYYSIPWTFGGGTKLEIK	–	–	–	–	–	–	–	–	–	–	–	Phagocytic index, Raji cells and human macrophages, antibody at 0.125 µg/mL [4]: 124 Raji cells ingested per 100 macrophages; EC50 [5]: 0.058 µg/mL; binding result [6]: no binding (tested: 7.3 µg/mL highest concentration); Kd [7]: 1.94 nM; koff [7]: 0.00037 s⁻¹; kon [7]: 190000 M⁻¹ s⁻¹; IC50 [8]: 0.657 µg/mL
h20-H3-L3Y (candidate 20.28), hIgG4-S228P (antibody, V domains shown, also called H20-VH3-VL3,Y) VH: QVQLVQSGAEVKKPGASVKVSCKASGYSFTDYYINWVRQAPGQGLEWMGRIYPGIGNTYYNKKFKGRVTVTRDTSISTAHMELSSLRSDDTAVYYCARGHYGRGMDYWGQGTAVTVSS VL: EIVLTQSPDSLAVSLGERATINCKSSQSLLNSIDQKNYLAWYQQKAGQSPKLLIYYASTKESGVPDRFSGSGSGTDFTLTIDSLQAEDVAVYYCQQHYSTPWTFGGGTKVEIKR	–	–	–	–	–	–	–	–	–	–	–	Kd [9]: 2.32 nM; koff [9]: 0.000573 s⁻¹; kon [9]: 264000 M⁻¹ s⁻¹; EC50 [10]: 0.117 µg/mL; IC50 [11]: 0.17 µg/mL; EC50 (read off the curve) [12]: ~0.1 µg/mL; IC50 (read off the curve) [13]: ~0.3 µg/mL
h20-VH2-VL5 (candidate 20.10) (antibody, human IgG4 S228P, kappa, V domains shown, hIgG4-S228P/kappa; also called h20-H2-L5) VH: QVQLVQSGAEVKKPGASVKVSCKASGYSFTDYYINWVRQAPGQGLEWMGRIYPGIGNTYYNKKFKGRVTITRDTSASTAYMELSSLRSEDTAVYYCARGHYGRGMDYWGQGTLVTVSS VL: DIVMTQSPDSLAVSLGERATINCKSSQSLLNSIDQKNYLAWYQQKPGQPPKLLIYFASTKESGVPDRFSGSGSGTDFTLTISGLQAEDVAVYFCQQHYSTPWTFGGGTKVEIRR	–	–	–	–	–	5.85 nM	118000 M⁻¹ s⁻¹	0.191 µg/mL	0.000634 s⁻¹	no binding	0.051 µg/mL	EC50 (read off the curve) [19]: ~0.1 µg/mL; IC50 (read off the curve) [20]: ~0.2 µg/mL
h20-H4-L4Y (candidate 20.29), hIgG4-S228P (antibody, V domains shown, also called H20-VH4-VL4,Y) VH: QVQLVQSGAEVKKPGSSVKVSCKASGYSFTDYYINWVRQAPGQGLEWMGRIYPGIGNTYYNKKFKGRVTITADKSTSTAYMELSSLRSEDTAVYYCARGHYGRGMDYWGQGTTVTVSS VL: DIVMTQSPDSLAVSLGERATINCKSSQSLLNSIDQKNYLAWYQQKPGQPPKLLIYYASTKESGVPDRFSGSGSGTDFTLTISSLQAEDVAVYFCQQHYSTPWTFGGGAKVEIKR	–	–	–	–	–	–	–	–	–	–	–	Kd [9]: 2.61 nM; koff [9]: 0.000761 s⁻¹; kon [9]: 306000 M⁻¹ s⁻¹; EC50 [10]: 0.147 µg/mL; IC50 [11]: 0.181 µg/mL; EC50 (read off the curve) [21]: ~0.1 µg/mL; IC50 (read off the curve) [22]: ~0.4 µg/mL
h20-VH4-VL4 (candidate 20.19) (antibody, human IgG4 S228P, kappa, V domains shown, hIgG4-S228P/kappa; also called h20-H4-L4) VH: QVQLVQSGAEVKKPGSSVKVSCKASGYSFTDYYINWVRQAPGQGLEWMGRIYPGIGNTYYNKKFKGRVTITADKSTSTAYMELSSLRSEDTAVYYCARGHYGRGMDYWGQGTTVTVSS VL: DIVMTQSPDSLAVSLGERATINCKSSQSLLNSIDQKNYLAWYQQKPGQPPKLLIYFASTKESGVPDRFSGSGSGTDFTLTISSLQAEDVAVYFCQQHYSTPWTFGGGAKVEIKR	–	–	–	–	–	4.15 nM	179000 M⁻¹ s⁻¹	0.139 µg/mL	0.000685 s⁻¹	no binding	0.192 µg/mL	EC50 (read off the curve) [21]: ~0.1 µg/mL; IC50 (read off the curve) [22]: ~0.3 µg/mL
h20-VH3-VL3 (candidate 20.13) (antibody, human IgG4 S228P, kappa, V domains shown, hIgG4-S228P/kappa; also called h20-H3-L3) VH: QVQLVQSGAEVKKPGASVKVSCKASGYSFTDYYINWVRQAPGQGLEWMGRIYPGIGNTYYNKKFKGRVTVTRDTSISTAHMELSSLRSDDTAVYYCARGHYGRGMDYWGQGTAVTVSS VL: EIVLTQSPDSLAVSLGERATINCKSSQSLLNSIDQKNYLAWYQQKAGQSPKLLIYFASTKESGVPDRFSGSGSGTDFTLTIDSLQAEDVAVYYCQQHYSTPWTFGGGTKVEIKR	–	–	–	–	–	3.05 nM	214000 M⁻¹ s⁻¹	0.147 µg/mL	0.000594 s⁻¹	no binding	0.173 µg/mL	EC50 (read off the curve) [12]: ~0.08 µg/mL; IC50 (read off the curve) [13]: ~0.2 µg/mL
